The source of these data is the DeepSol protein solubility set.

The series in a line: soluble on expression in E. coli; label from the status in PepcDB or PDB records.
For “MPGIDKLPIEETLEDSPQTRSLLGVFEEDATAISNYMNQLYQAMHRIYDAQNELSAATHLTSKLLKEYEKQRFPLGGDDEVMSSTLQQFSKVIDELSSCHAVLSTQLADAMMFPITQFKERDLKEILTLKEVFQIASNDHDAAINRYSRLSKKRENDKVKYEVTEDVYTSRKKQHQTMMHYFCALNTLQYKKKIALLEPLLGYMQAQISFFKMGSENLNEQLEEFLANIGTSVQNVRREMDSDIETMQQTIEDLEVASDPLYVPDPDPTKFPVNRNLTRKAGYLNARNKTGLVSSTWDRQFYFTQGGNLMSQARGDVAGGLAMDIDNCSVMAVDCEDRRYCFQITSFDGKKSSILQAESKKDHEEWICTINNISKQIYLSENPEETAARVNQSALEAVTPSPSFQQRHESLRPAAGQSRPPTARTSSSGSLGSESTNLAALSLDSLVAPDTPIQFDIISPVCEDQPGQAKAFGQGGRRTNPFGESGGSTKSETEDSILHQLFIVRFLGSMEVKSDDHPDVVYETMRQILAARAIHNIFRMTESHLLVTCDCLKLIDPQTQVTRLTFPLPCVVLYATHQENKRLFGFVLRTSSGRSESNLSSVCYIFESNNEGEKICDSVGLAKQIALHAELDRRASEKQ”, the “soluble on expression in E. coli” value is listed as “not soluble”.

“MGSDKIHHHHHHMNISNSQVNRLRHFVRAGLRSLFRPEPQTAVEWADANYYLPKESAYQEGRWETLPFQRAIMNAMGSDYIREVNVVKSARVGYSKMLLGVYAYFIEHKQRNTLIPAGFVAVFNSDESSWHLVEDHRGKTVYDVASGDALFISELGPLPENVTWLSPEGEFQKWNGTAWVKDAEAEKLFRIREAEETKNSLMQVASEHIAPLQDAVDLEIATEEETSLLEAWKKYRVLLNRVDTSTAPDIEWPTNPVRE”: the “soluble on expression in E. coli” value was “not soluble”.

Consider “MSLSKLGYIPNQAARTLITNKTLTIGLIQKSSAPEIRQNPFNSDVLNGINQACNVRGYSTRMTVSENSGDLYHEVKTMIQSKSVDGFILLYSLKDDPIEHLLNEFKVPYLIVGKSLNYENIIHIDNDNIDAAYQLTQYLYHLGHRHILFLQESGHYAVTEDRSVGFKQYCDDVKISNDCVVIKSMNDLRDFIKQYCIDASHMPSVIITSDVMLNMQLLNVLYEYQLRIPEDIQTATFNTSFLTENATPSQTSVNINPDVLGFTAGNTIIDVLRNETISFREKLISTQIVERVSTTKIEGHHHHHH”, for which the “soluble on expression in E. coli” value was “soluble”.

Turning to “MDYTKYLAGRANWIKGSALADVMKKASELQKKGVKLISLAAGDPDPELIPRAVLGEIAKEVLEKEPKSVMYTPANGIPELREELAAFLKKYDHLEVSPENIVITIGGTGALDLLGRVLIDPGDVVITENPSYINTLLAFEQLGAKIEGVPVDNDGMRVDLLEEKIKELKAKGQKVKLIYTIPTGQNPMGVTMSMERRKALLEIASKYDLLIIEDTAYNFMRYEGGDIVPLKALDNEGRVIVAGTLSKVLGTGFRIGWIIAEGEILKKVLMQKQPIDFCAPAISQYIALEYLKRGYFEKYHLEGALLGYKEKRDIMLKALENHLPNAEFTKPIAGMFVMFFLPEGADGISFANELMEREGVVVVPGKPFYTDESGKNAIRLNFSRPSKEEIPIGIKKLAKLYKEKFGE”, the “soluble on expression in E. coli” value was “soluble”.

In the case of “MLSRTLRPISKVLRSSAKYSQAAGLPLNEGSPAPLPSEDRAISAKVSSLVEEIANLSLLDVSDLNWALKKRLNIPDQPLMAAAAAAPAAQAEAEAASDVPQKMTFTVKLTKFDDTKKIAIIKEIRNAIPGLNLVQAKKFVETAPVNVKEDLGKAEADELKAILEKAGATIEIV”, the “soluble on expression in E. coli” value is “not soluble”.

In the case of “MGSDKIHHHHHHMKKYYLLSLISASLIGATCIQCTSPKQKSGENTLPQKSELFVSLPDYCPTPDGMAIAPNGDLILACPNFADITQPACLMRITKDGAVSKWLDVPVLEETGWASPMGLAFNEEGDLFISDNQGWSGAEKAKNKGRVLRLKFENDQLKETITVASGMEHPNGIRIRNGKLYVTQSSLSQIKDPSGLLVSGVYCFDMNDRDIAVTNTSADQNLLTTVITKNPEVQYGLDGIVFNEAGDLFVGNFGDGAIHRIKMDAEGKVVSNDVWAQDTTQLRTTDGMCIDDKGNIWVADFSANAVARVDKDGKIQRIAQSPDCDGSDGGLDQPGEPIVWNGQVIVSCFDLVTGPDKVNTKHDKPFTLAKLSLE”, the “soluble on expression in E. coli” value is “not soluble”.

As to “MKVAVLGAAGGIGQALALLLKTQLPSGSELSLYDIAPVTPGVAVDLSHIPTAVKIKGFSGEDATPALEGADVVLISAGVARKPGMDRSDLFNVNAGIVKNLVQQVAKTCPKACIGIITNPVNTTVAIAAEVLKKAGVYDKNKLFGVTTLDIICSNTFVAELKGKQPGEVEVPVIGGHSGVTILPLLSQVPGVSFTEQEVADLTKRIQNAGTEVVEAKAGGGSATLSMGQAAARFGLSLVRALQGEQGVVECAYVEGDGQYARFFSQPLLLGKNGVEERKSIGTLSAFEQNALEGMLDTLKKDIALGQEFVNK”, the “soluble on expression in E. coli” value is “soluble”.

For the sequence “MKKVIKKYFFLALAIIMYSCNEDEKYDILERYTPETITSDEIAPVLNLQAQYMDSNSEIVLVTWMNPEDDFLSKVEISCCSANDNLLGEPVLLDAVSTKVGSYQTSLSVEERGYVKIVAINEKGVRSEARTAEILSSQQDFVYRADCLMSSVIELFFGGRYNAWNENYPNATGPYWDGIAAVWGQGAAYSGFVTMYKVTKETNNEKLRAKYAEKEETFLNSIDIFLNNGSGRKSFAYGTYIGPNDERYYDDNVWIGIEMANLYELTGNEVYLQHANTVWNFILEGIDDVTGGGVYWKEGAVSKHTCSTAPAAVMALKLYQLSKNESYLEIAKSLYSYCKDVLQDPNDYLFYDNVRLSDPSDKNSELKVSKDKFTYNSGQPMLAAAMLYRITKEEQFLKDAQNIAQSIYKKWFKNYHSSILDRDIMILSDPNTWFNAVMFRGFVELYKIDKNDVYVKAVKNTMEHAWQSNCRNRLTNLMSDDYAGDKKEGKWNIKTQGAFVEIFSLIGELEQLGCFQELEHHHHHH”, the “soluble on expression in E. coli” value is on record as “not soluble”.

For the sequence “GQDRSPIETQNVETVLRLFDEGWGAQDGWRDVWRETMTPGFRSIFHSNQAVEGIEQAIAFNAVLFEGFPRLEVVVENVTVEGDNVVVQARLTGAQDGPFLGVPPSGQMVDVPDVTLFTLADGQVIEMRYFTDLLAVMTAISAPPEN”, the “soluble on expression in E. coli” value is listed as “soluble”.

On to “MGSDKIHHHHHHMQDDRLFPYGHARGAGWREALSSALEMAGPRVRGGTLGFLYVTDSFESDLPDILSAVREQTGVPHWTGCVGAGICATAQEYLDEPALAFMVTDFPETEFRLFAGMGPYRTGKSWPTGPGRPPYFAIVHGDSQTPDLPDLVRDFAGQMGSGFITGGICSSRTDGAQLVDEVVHGGLSGVTFSENIAVATRLTQGCSPIGPIHHINEAHNNVISRLDDRPALDVFNDETCDILSRDLQRAAGFIFVAMPVKNDDRGDYMVRTLVGIDIERKLLAIGEYAEAGQSLMFCKRDSGTAGEDLERMLSDISRLADGRKIRGGLYFTCVWRGQNLFGPDSAELRMIRDGLGDFPLVGFFANAEISHDKIYGYTGVLTLFLDAPTS”, for which the “soluble on expression in E. coli” value is “not soluble”.

Regarding “MPNDLKKELRELKETLEYLKKSFEVISQLAQAYIRLLNVYAEYGDLGIDVVIPEIKHDPIARDIVKILFDLRRANVSQIARELKGRRGKASRNTVRKKLKELEKLGVVKEVPGERGSVYTLSREVVKKWLDLIGIPINLLLEHHHHHH”, the “soluble on expression in E. coli” value is “soluble”.

In the case of “DGVRIFNSLAATVYADSTAAHADMQGRRLKAVSDGLDHNGTGLRVIAQTQQDGGTWEQGGVEGKMRGSTQTVGIAAKTGENTTAAATLGMGRSTWSENSANAKTDSISLFAGIRHDAGDIGYLKGLFSYGRYKNSISRSTGADEHAEGSVNGTLMQLGALGGVNVPFAATGDLTVEGGLRYDLLKQDAFAEKGSALGWSGNSLTEGTLVGLAGLKLSQPLSDKAVLFATAGVERDLNGRDYTVTGGFTGATAATGKTGARNMPHTRLVAGLGADVEFGNGWNGLARYSYAGSKQYGNHSGRVGVGYRF”, the “soluble on expression in E. coli” value is “soluble”.

Take “MTKQAEETQKPIIFAPETYQYDKFTLNEKQLTDDPIDLFTKWFNEAKEDPRETLPEAITFSSAELPSGRVSSRILLFKELDHRGFTIYSNWGTSRKAHDIATNPNAAIVFFWKDLQRQVRVEGITEHVNRETSERYFKTRPRGSKIGAWASRQSDVIKNREELDELTQKNTERFKDAEDIPCPDYWGGLRIVPLEIEFWQGRPSRLHDRFVYRRKTENDPWKVVRLAP”: the “soluble on expression in E. coli” value was “soluble”.
